Test results: patent US20250129135A1, “Multi-Agonist and Use Thereof” (priority 2021, published 2025)
Starred links: 1 amine or outer side, 2 acyl side, 3 side chain; linkers in the order of their positions; H or OH if unused. Non-standard residues stand in square brackets, D forms with d. Groups on a side chain read outwards from the residue. No end group written: not given here. *: point of attachment. C20 diacid = O=C(O)CCCCCCCCCCCCCCCCCCC(=O)*; γGlu = O=C(O)[C@H](CCC(=O)[*:2])N[*:1]; αMeF = C[C@](N)(Cc1ccccc1)C(=O)O; AEEA = NCCOCCOCC(=O)O; Ac3c = NC1(C(=O)O)CC1; Aib = CC(C)(N)C(=O)O

T1: human GIP receptor (human, UniProt P48546 22-466)
T1 sequence (looked up): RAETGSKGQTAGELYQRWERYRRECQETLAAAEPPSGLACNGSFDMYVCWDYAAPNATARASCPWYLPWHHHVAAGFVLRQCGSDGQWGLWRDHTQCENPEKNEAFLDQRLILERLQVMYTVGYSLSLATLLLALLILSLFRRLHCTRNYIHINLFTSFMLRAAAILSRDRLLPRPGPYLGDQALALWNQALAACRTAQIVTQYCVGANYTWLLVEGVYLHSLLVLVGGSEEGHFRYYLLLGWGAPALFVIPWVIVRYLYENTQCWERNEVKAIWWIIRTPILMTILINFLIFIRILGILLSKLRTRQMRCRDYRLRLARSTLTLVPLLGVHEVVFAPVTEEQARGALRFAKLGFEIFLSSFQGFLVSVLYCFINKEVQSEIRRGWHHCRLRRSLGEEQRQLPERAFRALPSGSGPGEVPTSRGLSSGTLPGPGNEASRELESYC


Columns and labels:
Assay in all cases: cell-based or functional assay
human GLP-1 receptor = human GLP-1 receptor (human, UniProt P43220 24-463)
human GIP receptor = target: T1, human GIP receptor
human GCG receptor = human GCG receptor (human, UniProt P47871 26-477)
human GCG receptor, sequence (P47871 26-477): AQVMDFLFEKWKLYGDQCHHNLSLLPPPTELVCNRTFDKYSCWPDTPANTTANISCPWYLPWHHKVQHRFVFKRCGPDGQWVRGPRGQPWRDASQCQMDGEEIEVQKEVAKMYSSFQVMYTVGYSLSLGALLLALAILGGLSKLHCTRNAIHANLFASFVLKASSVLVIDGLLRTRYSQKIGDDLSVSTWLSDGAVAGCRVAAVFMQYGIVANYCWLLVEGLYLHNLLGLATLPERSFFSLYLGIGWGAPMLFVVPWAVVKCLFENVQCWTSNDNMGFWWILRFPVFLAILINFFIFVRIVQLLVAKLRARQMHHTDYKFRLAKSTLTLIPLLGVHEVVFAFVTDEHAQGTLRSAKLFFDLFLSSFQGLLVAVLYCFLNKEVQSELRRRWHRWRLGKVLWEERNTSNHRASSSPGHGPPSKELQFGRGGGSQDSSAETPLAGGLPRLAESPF

Binder	cAMP EC50, HEK-293 cells stably overexpressing human GLP-1 R (human GLP-1 receptor) [nM]	cAMP Rel. A (%) against human GLP-1 (7-37), human GLP-1 R cells (human GLP-1 receptor) [%]	cAMP Rel. A (%) against human GIP, human GIP R cells (human GIP receptor) [%]	cAMP Rel. A (%) against human GCG, human GCG R cells (human GCG receptor) [%]	cAMP EC50, CHO cells stably overexpressing human GIP R (human GIP receptor) [nM]	cAMP EC50, HEK-293 cells stably overexpressing human GCG R (human GCG receptor) [nM]
YXQGTXTSDYSIFLDKKAQXAFIEFLLESHPSSGAPPPS (Aib at 2; αMeF at 6; Lys 17 side chain AEEAc-AEEAc-γGlu-CO(CH2)18COOH; Aib at 20; C-terminal amide (NH2)) [Compound 15]	0.023	191	548	41	–	–
YXQGTXTSDYSIFLDKKAQXAFIEYLLEXHPSSGAPPXS (Aib at 2; αMeF(2F) at 6; Lys 17 side chain AEEAc-AEEAc-γGlu-CO(CH2)18COOH; Aib at 20; Aib at 29; Ac3c at 38; C-terminal amide (NH2)) [Compound 32]	0.014	314	1650	335	0.011	0.017
YXQGTXTSDYSIFLDKKAQXAFIEFLLEGGPSSGQPPPS (Aib at 2; αMeF(2F) at 6; Lys 17 side chain AEEAc-AEEAc-γGlu-CO(CH2)18COOH; Aib at 20; C-terminal amide (NH2)) [Compound 21]	0.005	880	2260	228	0.008	0.025
YXQGTXTSDYSIXLDKKAQXAFIEYLLESHPSSGAPPPS (Aib at 2; αMeF at 6; αMeF at 13; Lys 17 side chain AEEAc-AEEAc-γGlu-CO(CH2)18COOH; Aib at 20; C-terminal amide (NH2)) [Compound 27]	0.016	275	787	96.6	0.023	–
YXQGTXTSDYSIXLDKKAQXAFIEFLLESHPSSGAPPPS (Aib at 2; αMeF at 6; αMeL at 13; Lys 17 side chain AEEAc-AEEAc-γGlu-CO(CH2)18COOH; Aib at 20; C-terminal amide (NH2)) [Compound 26]	0.022	200	2590	43.9	0.007	–
YXQGTXTSDYSIFLDKKAQXAFIEFLLEXHPSSGAPPPS (Aib at 2; αMeF at 6; Lys 17 side chain AEEAc-AEEAc-γGlu-CO(CH2)18COOH; Aib at 20; Aib at 29; C-terminal amide (NH2)) [Compound 16]	0.02	220	335	33.9	–	–
YXQGTXTSDYSIFLDKKAQXAFIEYLLESXPSSGAPPXS (Aib at 2; αMeF at 6; Lys 17 side chain AEEAc-AEEAc-γGlu-CO(CH2)18COOH; Aib at 20; Aib at 30; Ac3c at 38; C-terminal amide (NH2)) [Compound 29]	0.016	275	58.6	82.6	0.309	0.069
YXQGTXTSDYSIXLDKKAQXAFIEFLLEGGPSSGQPPPS (Aib at 2; αMeF(2F) at 6; αMeL at 13; Lys 17 side chain AEEAc-AEEAc-γGlu-CO(CH2)18COOH; Aib at 20; C-terminal amide (NH2)) [Compound 22]	–	733	2590	335	0.007	0.017
YXQGTXTSDYSIFLDKKAQXAFIEYLLETGPSSGAPPPS (Aib at 2; αMeF(2F) at 6; Lys 17 side chain AEEAc-AEEAc-γGlu-CO(CH2)18COOH; Aib at 20; C-terminal amide (NH2)) [Compound 17]	0.011	400	953	163	–	–
YXQGTXTSDYSIXLDKKAQXAFIEFLLESHPSSXHPPXS (Aib at 2; αMeF at 6; αMeL at 13; Lys 17 side chain AEEAc-AEEAc-γGlu-CO(CH2)18COOH; Aib at 20; Aib at 34; Ac3c at 38; C-terminal amide (NH2)) [Compound 33]	0.019	232	2260	36.8	0.008	0.155
YXQGTXTSDYSIXLDKKAQXAFIEFLLEXHPSSGAPPPS (Aib at 2; αMeF(2F) at 6; αMeL at 13; Lys 17 side chain AEEAc-AEEAc-γGlu-CO(CH2)18COOH; Aib at 20; Aib at 29; C-terminal amide (NH2)) [Compound 20]	0.01	440	3020	248	–	–
YXQGTXTSDYSIXLDKKAQXAFIEFLLETXPSSGAPPXS (Aib at 2; αMeF at 6; αMeL at 13; Lys 17 side chain AEEAc-AEEAc-γGlu-CO(CH2)18COOH; Aib at 20; Aib at 30; Ac3c at 38; C-terminal amide (NH2)) [Compound 30]	0.02	220	1210	33	0.015	0.173
YXQGTXTSDYSIXLDKKAQXAFIEFLLETGPSSGAPPPS (Aib at 2; αMeF(2F) at 6; αMeL at 13; Lys 17 side chain AEEAc-AEEAc-γGlu-CO(CH2)18COOH; Aib at 20; C-terminal amide (NH2)) [Compound 19]	0.009	489	2260	197	0.008	0.029
YXQGTXTSDYSIFLDKKAQXAFIEYLLEXHPSSGAPPPS (Aib at 2; αMeF(2F) at 6; Lys 17 side chain AEEAc-AEEAc-γGlu-CO(CH2)18COOH; Aib at 20; Aib at 29; C-terminal amide (NH2)) [Compound 18]	0.012	367	862	219	0.021	0.026
YXQGTXTSDYSIXLDKKAQXAFIEFLLEXHPSSGAPPXS (Aib at 2; αMeF(2F) at 6; αMeL at 13; Lys 17 side chain AEEAc-AEEAc-γGlu-CO(CH2)18COOH; Aib at 20; Aib at 29; Ac3c at 38; C-terminal amide (NH2)) [Compound 31]	0.012	367	2010	211	–	–
YXQGTXTSDYSIXLDKKAQXAFIEYLLETHPSSGAPPXS (Aib at 2; αMeF at 6; αMeL at 13; Lys 17 side chain AEEAc-AEEAc-γGlu-CO(CH2)18COOH; Aib at 20; Ac3c at 38; C-terminal amide (NH2)) [Compound 2]	0.026	169	724	24.6	0.025	0.232
Y[Aib]QGT[αMeF]TSDYSIXLDKK([AEEA-AEEA-γGlu-C20 diacid])AQ[Aib]AFIEFLLES[Aib]PSSGAPP[Ac3c]S-NH2 (not fully specified (residue 13); printed as Y-Aib-QGT-αMeF-TSDYSI-αMeF-LDKK(AEEAc-AEEAc-γGlu-CO(CH2)18COOH)AQ-Aib-AFIEFLLES-Aib-PSSGAPP-Ac3c-S-NH2) [Compound 28]	0.024	183	1650	37	0.011	0.154
YXQGTXTSDYSIXLDKKAQXAFIEYLLETGPSSGQPPPS (Aib at 2; αMeF(2F) at 6; αMeL at 13; Lys 17 side chain AEEAc-AEEAc-γGlu-CO(CH2)18COOH; Aib at 20; C-terminal amide (NH2)) [Compound 23]	0.005	880	2590	228	0.007	0.025
YXQGTXTSDYSIXLDKKAQXAFIEYLLETGPSSGQPPXS (Aib at 2; αMeF(2F) at 6; αMeL at 13; Lys 17 side chain AEEAc-AEEAc-γGlu-CO(CH2)18COOH; Aib at 20; Ac3c at 38; C-terminal amide (NH2)) [Compound 34]	0.023	191	3620	150	0.005	0.038
YXQGTXTSDYSIXLDKKAQXAFIEFLLETGPSSXHPPPS (Aib at 2; αMeF(2F) at 6; αMeL at 13; Lys 17 side chain AEEAc-AEEAc-γGlu-CO(CH2)18COOH; Aib at 20; Aib at 34; C-terminal amide (NH2)) [Compound 38]	–	–	–	–	0.013	0.068
YXQGTXTSDYSIXLDKKAQXAFIEYLLETGPSSGAPPXS (Aib at 2; αMeF at 6; αMeL at 13; Lys 17 side chain AEEAc-AEEAc-γGlu-CO(CH2)18COOH; Aib at 20; Ac3c at 38; C-terminal amide (NH2)) [Compound 1]	–	–	1210	57.6	0.015	–
YXQGTXTSDYSIXLDKKAQXAFIEYLLETGPSSGQPPXS (Aib at 2; αMeF at 6; αMeL at 13; Lys 17 side chain AEEAc-AEEAc-γGlu-CO(CH2)18COOH; Aib at 20; Ac3c at 38; C-terminal amide (NH2)) [Compound 35]	0.022	200	2260	65.5	0.008	0.087
YXQGTXTSDYSIXLDKKAQXAFIEFLLEGRPSSXHPPPS (Aib at 2; αMeF(2F) at 6; αMeL at 13; Lys 17 side chain AEEAc-AEEAc-γGlu-CO(CH2)18COOH; Aib at 20; Aib at 34; C-terminal amide (NH2)) [Compound 25]	0.031	142	1390	168	0.013	0.034
